The text below walks through data of IntAct's records for PubMed 22262837.

The labels stand for the following.
B1: Kin of IRRE-like protein 1 (Homo sapiens), Q96J84 (parent)
chain: MLSLLVWILTLSDTFSQGTQTRFSQEPADQTVVAGQRAVLPCVLLNYSGIVQWTKDGLALGMGQGLKAWPRYRVVGSADAGQYNLEITDAELSDDASYECQATEAALRSRRAKLTVLIPPEDTRIDGGPVILLQAGTPHNLTCRAFNAKPAATIIWFRDGTQQEGAVASTELLKDGKRETTVSQLLINPTDLDIGRVFTCRSMNEAIPSGKETSIELDVHHPPTVTLSIEPQTVQEGERVVFTCQATANPEILGYRWAKGGFLIEDAHESRYETNVDYSFFTEPVSCEVHNKVGSTNVSTLVNVHFAPRIVVDPKPTTTDIGSDVTLTCVWVGNPPLTLTWTKKDSNMVLSNSNQLLLKSVTQADAGTYTCRAIVPRIGVAEREVPLYVNGPPIISSEAVQYAVRGDGGKVECFIGSTPPPDRIAWAWKENFLEVGTLERYTVERTNSGSGVLSTLTINNVMEADFQTHYNCTAWNSFGPGTAIIQLEEREVLPVGIIAGATIGASILLIFFFIALVFFLYRRRKGSRKDVTLRKLDIKVETVNREPLTMHSDREDDTASVSTATRVMKAIYSSFKDDVDLKQDLRCDTIDTREEYEMKDPTNGYYNVRAHEDRPSSRAVLYADYRAPGPARFDGRPSSRLSHSSGYAQLNTYSRGPASDYGPEPTPPGPAAPAGTDTTSQLSYENYEKFNSHPFPGAAGYPTYRLGYPQAPPSGLERTPYEAYDPIGKYATATRFSYTSQHSDYGQRFQQRMQTHV

The variants in this test derive from B1. The note with it: with zo1_human TJP1, Q07157.
Sequence of zo1_human TJP1, Q07157 (Q07157 whole entry): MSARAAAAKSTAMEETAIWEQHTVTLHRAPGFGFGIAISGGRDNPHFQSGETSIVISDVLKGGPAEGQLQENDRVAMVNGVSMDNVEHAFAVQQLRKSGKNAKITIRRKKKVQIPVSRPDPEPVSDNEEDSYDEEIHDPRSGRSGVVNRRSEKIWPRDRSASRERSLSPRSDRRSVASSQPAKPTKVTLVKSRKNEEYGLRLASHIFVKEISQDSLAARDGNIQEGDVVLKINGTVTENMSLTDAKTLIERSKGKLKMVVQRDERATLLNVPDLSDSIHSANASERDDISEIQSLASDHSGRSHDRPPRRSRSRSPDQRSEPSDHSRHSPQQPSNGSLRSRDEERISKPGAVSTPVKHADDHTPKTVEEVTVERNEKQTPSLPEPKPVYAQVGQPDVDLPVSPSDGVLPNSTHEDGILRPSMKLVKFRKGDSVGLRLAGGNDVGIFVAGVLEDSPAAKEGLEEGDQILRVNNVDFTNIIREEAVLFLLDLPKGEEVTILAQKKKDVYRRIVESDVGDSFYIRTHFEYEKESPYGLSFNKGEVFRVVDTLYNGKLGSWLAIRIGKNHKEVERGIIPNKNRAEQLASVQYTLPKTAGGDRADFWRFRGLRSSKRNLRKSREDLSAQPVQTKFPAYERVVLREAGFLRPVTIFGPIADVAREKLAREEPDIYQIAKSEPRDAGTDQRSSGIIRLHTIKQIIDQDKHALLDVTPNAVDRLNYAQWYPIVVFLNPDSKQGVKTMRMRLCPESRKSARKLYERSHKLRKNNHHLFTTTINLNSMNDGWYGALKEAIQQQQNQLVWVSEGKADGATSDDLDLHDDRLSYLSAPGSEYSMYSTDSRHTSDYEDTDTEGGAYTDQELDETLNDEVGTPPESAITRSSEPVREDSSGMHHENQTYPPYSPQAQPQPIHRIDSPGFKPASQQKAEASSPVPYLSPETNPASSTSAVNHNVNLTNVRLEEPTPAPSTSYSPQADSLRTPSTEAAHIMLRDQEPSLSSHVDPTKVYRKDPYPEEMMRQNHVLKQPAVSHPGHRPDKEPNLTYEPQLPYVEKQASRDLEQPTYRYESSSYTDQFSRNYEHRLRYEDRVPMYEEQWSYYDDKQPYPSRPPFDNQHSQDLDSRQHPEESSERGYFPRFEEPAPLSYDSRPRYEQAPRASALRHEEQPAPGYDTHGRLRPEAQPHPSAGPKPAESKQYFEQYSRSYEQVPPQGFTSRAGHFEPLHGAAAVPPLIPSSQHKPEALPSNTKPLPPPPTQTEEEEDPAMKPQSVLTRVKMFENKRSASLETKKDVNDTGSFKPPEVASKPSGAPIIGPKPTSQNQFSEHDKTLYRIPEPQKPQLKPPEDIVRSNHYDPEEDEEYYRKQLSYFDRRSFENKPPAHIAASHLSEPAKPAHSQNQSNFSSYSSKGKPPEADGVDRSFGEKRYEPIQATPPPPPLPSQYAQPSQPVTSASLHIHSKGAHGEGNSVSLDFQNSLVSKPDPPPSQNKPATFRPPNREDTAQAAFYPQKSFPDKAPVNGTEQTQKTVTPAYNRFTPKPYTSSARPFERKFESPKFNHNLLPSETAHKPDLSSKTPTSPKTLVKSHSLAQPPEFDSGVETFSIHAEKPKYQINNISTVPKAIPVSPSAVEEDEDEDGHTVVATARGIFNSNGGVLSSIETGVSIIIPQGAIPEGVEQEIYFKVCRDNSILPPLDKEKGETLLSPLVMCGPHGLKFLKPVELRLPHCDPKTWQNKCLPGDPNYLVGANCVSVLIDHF
As to Y730A, the “effect of a mutation on the interaction” value is “decreasing interaction strength”. K729A: the “effect of a mutation on the interaction” value is “decreasing interaction strength”.
